The test system of series [1] is ABP (amantadine-binding protein). The series can be described thus: Thermofluor dye binding assay (differential scanning fluorimetry), amantadine on ABP. The conditions noted are these: 1 mM amantadine, 5 μM protein, SYPRO orange, 25° C. The protocol:
(§1) A synthetic gene encoding ABP was obtained and the protein expressed in E. coli.The design was expressed at high levels in the soluble fraction and was found by SEC-MALS to be a trimer in the presence and absence of amantadine (FIG. 2a). Interactions with amantadine were probed using thermofluor dye binding assay (differential scanning fluorimetry). […] As the protein was heated to 95° C., the fluorescence signal decreased, corresponding to protein aggregation at higher temperatures. […] In contrast, 2L6HC3_13, which has the same backbone parameters but lacks the amantadine binding site, is thermally stable by thermofluor assay, only starting to denature at ˜80° C. (FIG. 2b).
(§2) Thermofluor assays were performed in SAXS buffer using a CFX96 Touch™ Real-Time PCR machine (Bio-Rad). Thermal stability assays were performed using 45 μL of 5 μM protein (with or without 1 mM amantadine) and 5 μL of freshly prepared 200X SYPRO™ orange (Thermo-Fisher) solution in SAXS buffer. The temperature was ramped from 25 ° C. to 95 ° C. in 0.5 ° C. increments with intervals of 5 s. Fluorescence was read in the FRET scanning mode. The average of three replicates of buffer+SYPRO orange solution (no protein control) was subtracted from the average of three replicates for each sample.

The test system of a further series is ABP_L6Q. The series can be described thus: Thermofluor assay, amantadine on ABP_L6Q. Format: binding. The conditions noted are these: 1 mM amantadine, 5 μM protein, SYPRO orange, 25° C. The protocol:
(§3) As the protein was heated to 95° C., the fluorescence signal decreased, corresponding to protein aggregation at higher temperatures.
as §2

For another series, the system named is 2L6HC3_13. The series can be described thus: Thermofluor assay, amantadine on 2L6HC3_13 (scaffold lacking the amantadine binding site). To be noted: 1 mM amantadine. The protocol:
as §1, §2

A further series concerns ABP. The series can be described thus: Circular dichroism temperature melt of ABP in the presence of amantadine. It is filed as binding. As for the experimental part:
as §1
(§4) CD wavelength scans (260 to 195 nm) and temperature melts (25 to 95° C.) were measured using a JASCO™ J-1500 or an AVIV™ model 420 CD spectrometer. Temperature melts monitored […] at 222 nm and were carried out at a heating rate of 4° C/min. Protein samples were prepared at 0.25 mg/mL in phosphate buffered saline (PBS) pH 7.4 in a 0.1 cm cuvette.

Series [2] concerns the molecule itself. The series can be described thus: SEC-MALS; self-association of ABP subunits into a homo-trimer.
Series [3] can be described thus: Thermofluor melting curve of the proteins without ligand. It is filed as physicochemical. To be noted: for initial fluorescence signal of the apo protein (thermofluor melting curve): 25° C., without amantadine. As for the experimental part: as §1, §3, §2
Series [4] is described as follows: Circular dichroism temperature melt of ABP. It is filed as physicochemical. The conditions noted are these: CD at 25, 75, 95° C., without amantadine. The protocol:
as §1, §4

Series [5] is described as follows: SEC-MALS oligomeric state. It is filed as physicochemical. The conditions noted are these: in the presence and absence of amantadine. The protocol:
as §1

“Also recorded” adds a separate entry of the source.

As for `NC12CC3CC(CC(C3)C1)C2` [amantadine], in series [1], the “initial fluorescence signal of ABP in the presence of amantadine, compared with apo-ABP” value is reported as “lowered; also recorded: much lower”. Moreover, the “initial fluorescence signal of ABP_L6Q in the presence of amantadine, compared with apo-ABP_L6Q” value in the series on ABP_L6Q is “lowered; also recorded: much lower”. In addition, the “effect of amantadine on the melting curve of 2L6HC3_13” value in the series with 2L6HC3_13 is “no effect”. Moreover, the “loss in CD signal of ABP on heating to 95° C. in the presence of amantadine” value with ABP (1 mM amantadine) was “not significantly altered”. The “thermal stability of ABP by CD spectrum in the presence of amantadine” value with ABP (5 mM amantadine, 25, 75, 95° C.) is “not significantly affected”.

B1: ABP (amantadine-binding protein) (designed binder)
chain: GSHMGDAQDKLKYLVKQLERALRELKKSLDELERSLEELEKNPSEDALVENNRLNVENNKIIVEVLRIILELAKASAKLA
notes: The measurement row with m1 as both partners means self-association of ABP subunits
With B1, the binding result in series [2] was “binds”.

B2: 2L6HC3_13: previously characterized design; same backbone parameters as ABP but lacks the amantadine binding site (protein)
chain: GTKYELRRALEELEKALRELKKSLDELERSLEELEKNPSEDALVENNRLNVENNKIIVEVLRIIAEVLKINAKSD
In the case of B2, the “initial fluorescence signal of the apo protein (thermofluor melting curve)” value in series [3] is “very low”. Also, the “temperature at which the protein starts to denature (thermofluor)” value in series [3] (thermofluor assay, 25 to 95° C.) is around 80 °C.

B3: ABP: de novo designed homo-trimeric amantadine-binding protein, SEQ ID NO:1 (protein)
chain: DAQDKLKYLVKQLERALRELKKSLDELERSLEELEKNPSEDALVENNRLNVENNKIIVEVLRIILELAKASAKLA
modifications: homotrimer
For B3, the “initial fluorescence signal of the apo protein (thermofluor melting curve)” value in series [3] is listed as “high”. Also, in series [4], the “thermal stability of the all α-helical structure by CD spectrum” value was “fairly stable up to 75 °C”. In series [5], the “oligomeric state by SEC-MALS” value is given as “trimer”.
